In article PMC9482650, “Quantitative fragmentomics allow affinity mapping of interactomes” (Nature Communications, 2022):
Blank lines part the entries; values can stand above or below the binder they belong to.

How the values were obtained:
Assay in all cases: holdup assay
Set-up in all cases: key: below the threshold = too weak to quantify, mostly under pKd 3.1 to 4
[1] = biological target: T1, GRIP1_7, Q9Y3R0
T1 sequence (Q9Y3R0 999-1096, limits assumed, looked up): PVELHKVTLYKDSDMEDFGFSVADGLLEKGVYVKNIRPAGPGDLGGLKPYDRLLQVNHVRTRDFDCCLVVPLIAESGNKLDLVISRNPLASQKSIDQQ

[2] = biological target: Inadl_9, Q8NI35
Inadl_9, Q8NI35, sequence (Q8NI35 1530-1615): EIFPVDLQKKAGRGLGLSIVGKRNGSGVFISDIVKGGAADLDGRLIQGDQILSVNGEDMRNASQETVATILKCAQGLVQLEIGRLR

[3] = biological target: T2, MPDZ_12, O75970
T2 sequence (O75970 1857-1958, limits assumed, looked up): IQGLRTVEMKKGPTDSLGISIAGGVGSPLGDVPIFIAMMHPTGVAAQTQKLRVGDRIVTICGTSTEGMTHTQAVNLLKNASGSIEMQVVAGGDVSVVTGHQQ

[4] = biological target: T3, CARD11, Q9BXL7
T3 sequence (Q9BXL7 662-765, limits assumed, looked up): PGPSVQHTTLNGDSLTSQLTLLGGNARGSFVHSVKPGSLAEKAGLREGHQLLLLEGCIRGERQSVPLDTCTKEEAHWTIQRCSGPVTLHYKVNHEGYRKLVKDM

[5] = biological target: ARHGEF12, Q9NZN5-2
ARHGEF12, Q9NZN5-2, sequence (Q9NZN5 other isoform, or with tags, fused parts or gaps): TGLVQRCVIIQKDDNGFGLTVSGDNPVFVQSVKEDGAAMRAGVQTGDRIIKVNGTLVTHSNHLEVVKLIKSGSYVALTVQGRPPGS

[6] = biological target: T4, LNX2_3, Q8N448
T4 sequence (Q8N448 463-564, limits assumed, looked up): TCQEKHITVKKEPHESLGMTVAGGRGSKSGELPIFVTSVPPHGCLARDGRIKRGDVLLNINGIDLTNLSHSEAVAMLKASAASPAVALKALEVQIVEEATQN

[7] = biological target: T5, SIPA1L2, Q9P2F8
T5 sequence (Q9P2F8 945-1036, limits assumed, looked up): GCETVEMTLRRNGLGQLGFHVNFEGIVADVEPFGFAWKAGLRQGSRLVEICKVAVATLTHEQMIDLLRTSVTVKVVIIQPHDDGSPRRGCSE

[8] = biological target: PDLIM1, O00151
PDLIM1, O00151, sequence (O00151 1-87): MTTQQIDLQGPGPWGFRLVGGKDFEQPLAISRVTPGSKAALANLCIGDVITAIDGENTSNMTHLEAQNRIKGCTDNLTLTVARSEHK

[9] = biological target: CASK, O14936
CASK, O14936, sequence (O14936 487-570): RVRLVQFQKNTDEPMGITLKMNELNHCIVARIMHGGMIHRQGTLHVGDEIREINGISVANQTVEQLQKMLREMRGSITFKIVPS

[10] = biological target: IL16_1, Q14005
IL16_1, Q14005, sequence (Q14005 210-306): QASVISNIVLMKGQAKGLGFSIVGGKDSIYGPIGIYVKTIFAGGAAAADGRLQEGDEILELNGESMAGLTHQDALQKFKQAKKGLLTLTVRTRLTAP

[11] = biological target: MAGI2_5, Q86UL8
MAGI2_5, Q86UL8, sequence (Q86UL8 915-1017): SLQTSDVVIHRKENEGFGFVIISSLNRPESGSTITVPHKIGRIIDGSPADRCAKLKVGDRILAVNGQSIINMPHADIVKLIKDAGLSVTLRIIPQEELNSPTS

[12] = biological target: GRID2IP_2, A4D2P6
GRID2IP_2, A4D2P6, sequence (A4D2P6 272-370): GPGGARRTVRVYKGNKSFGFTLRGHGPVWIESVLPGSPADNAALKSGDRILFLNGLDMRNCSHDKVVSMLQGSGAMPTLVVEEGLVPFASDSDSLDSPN

[13] = biological target: T6, DFNB31_1, Q9P202
T6 sequence (Q9P202 135-233, limits assumed, looked up): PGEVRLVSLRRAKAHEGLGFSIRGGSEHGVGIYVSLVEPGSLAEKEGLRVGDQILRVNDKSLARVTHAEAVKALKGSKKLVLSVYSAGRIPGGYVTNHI

[14] = biological target: LNX1_2, Q8TBB1
LNX1_2, Q8TBB1, sequence (Q8TBB1 371-470): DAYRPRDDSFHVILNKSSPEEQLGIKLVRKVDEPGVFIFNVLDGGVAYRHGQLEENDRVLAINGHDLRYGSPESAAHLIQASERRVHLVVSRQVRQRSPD

[15] = biological target: T7, NHERF3_3, Q5T2W1
T7 sequence (Q5T2W1 238-333, limits assumed, looked up): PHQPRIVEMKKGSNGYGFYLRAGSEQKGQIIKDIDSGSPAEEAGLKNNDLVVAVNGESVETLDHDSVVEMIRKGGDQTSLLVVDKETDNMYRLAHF

[16] = biological target: Inadl_6, Q8NI35
Inadl_6, Q8NI35, sequence (Q8NI35 1058-1167): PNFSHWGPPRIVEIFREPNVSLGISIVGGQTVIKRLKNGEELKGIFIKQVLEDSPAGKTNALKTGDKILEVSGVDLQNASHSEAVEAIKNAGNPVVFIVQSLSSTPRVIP

[17] = biological target: GRIP2_4, Q9C0E4
GRIP2_4, Q9C0E4, sequence (Q9C0E4 446-548): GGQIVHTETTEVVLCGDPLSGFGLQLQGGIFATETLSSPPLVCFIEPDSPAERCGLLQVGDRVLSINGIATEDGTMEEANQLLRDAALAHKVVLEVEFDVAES

[18] = biological target: FRMPD2_2, Q68DX3
FRMPD2_2, Q68DX3, sequence (Q68DX3 944-1038): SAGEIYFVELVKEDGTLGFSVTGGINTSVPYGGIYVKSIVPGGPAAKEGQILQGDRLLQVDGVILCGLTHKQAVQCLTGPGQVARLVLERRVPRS

[19] = biological target: GRID2IP_1, A4D2P6
GRID2IP_1, A4D2P6, sequence (A4D2P6 1-87): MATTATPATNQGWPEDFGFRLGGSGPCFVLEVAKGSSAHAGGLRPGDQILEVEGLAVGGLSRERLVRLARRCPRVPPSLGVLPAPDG

[20] = biological target: LIMK2, P53671
LIMK2, P53671, sequence (P53671 143-248): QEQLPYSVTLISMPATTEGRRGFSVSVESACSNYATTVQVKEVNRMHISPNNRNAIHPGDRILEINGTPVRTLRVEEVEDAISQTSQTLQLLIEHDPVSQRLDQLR

[21] = biological target: NHERF4_4, Q86UT5
NHERF4_4, Q86UT5, sequence (Q86UT5 464-550): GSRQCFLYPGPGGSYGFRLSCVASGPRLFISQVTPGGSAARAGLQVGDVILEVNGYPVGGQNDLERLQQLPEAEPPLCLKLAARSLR

[22] = biological target: T8, GRIP1_3, Q9Y3R0
T8 sequence (Q9Y3R0 247-346, limits assumed, looked up): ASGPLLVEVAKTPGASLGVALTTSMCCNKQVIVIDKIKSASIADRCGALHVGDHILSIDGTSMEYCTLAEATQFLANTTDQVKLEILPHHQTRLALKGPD

[23] = biological target: MAGI2_2, Q86UL8
MAGI2_2, Q86UL8, sequence (Q86UL8 410-522): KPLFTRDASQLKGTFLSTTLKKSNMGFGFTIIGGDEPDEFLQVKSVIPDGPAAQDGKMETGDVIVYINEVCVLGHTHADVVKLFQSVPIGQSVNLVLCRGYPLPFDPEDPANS

[24] = biological target: T9, RADIL, Q96JH8
T9 sequence (Q96JH8 971-1071, limits assumed, looked up): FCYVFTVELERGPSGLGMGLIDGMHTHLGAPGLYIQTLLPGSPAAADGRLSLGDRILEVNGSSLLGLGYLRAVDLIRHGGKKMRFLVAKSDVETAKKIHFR

[25] = biological target: T10, APBA2_2, Q99767
T10 sequence (Q99767 654-744, limits assumed, looked up): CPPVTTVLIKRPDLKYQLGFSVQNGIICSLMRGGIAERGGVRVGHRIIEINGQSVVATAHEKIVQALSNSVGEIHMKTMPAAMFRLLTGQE

[26] = biological target: T11, GRIP1_2, Q9Y3R0
T11 sequence (Q9Y3R0 145-248, limits assumed, looked up): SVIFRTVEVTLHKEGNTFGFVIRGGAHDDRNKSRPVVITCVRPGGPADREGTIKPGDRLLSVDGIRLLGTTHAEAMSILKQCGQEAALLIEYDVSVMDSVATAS

[27] = biological target: MAGI1_1, Q96QZ7
MAGI1_1, Q96QZ7, sequence (Q96QZ7 1-106): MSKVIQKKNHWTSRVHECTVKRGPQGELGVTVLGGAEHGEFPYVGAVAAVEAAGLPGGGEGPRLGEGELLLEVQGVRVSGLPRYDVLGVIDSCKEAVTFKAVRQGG

[28] = plain residues with an end cap or a label only (N-terminal biotin on a linker: ahx)
[29] = plain residues with an end cap or a label only (N-terminal biotin on a linker: gsgsgs; C-terminal amide)
[30] = plain residues with an end cap or a label only (N-terminal biotin on a linker: ttds)

pKd [1, 28]: below the threshold | pKd [2, 28]: below the threshold | pKd [3, 28]: below the threshold | pKd [4, 28]: below the threshold | pKd [5, 28]: below the threshold | pKd [6, 28]: below the threshold | pKd [7, 28]: below the threshold | pKd [8, 28]: below the threshold | pKd [9, 28]: below the threshold | pKd [10, 28]: below the threshold | pKd [11, 28]: 3.7 | pKd [12, 28]: below the threshold | pKd [13, 28]: below the threshold | pKd [14, 28]: below the threshold | pKd [15, 28]: below the threshold | pKd [16, 28]: below the threshold | pKd [17, 28]: below the threshold | pKd [18, 28]: below the threshold | pKd [19, 28]: below the threshold | pKd [20, 28]: below the threshold | pKd [21, 28]: below the threshold | pKd [22, 28]: below the threshold | pKd [23, 28]: below the threshold | pKd [24, 28]: below the threshold | pKd [25, 28]: below the threshold | pKd [26, 28]: below the threshold | pKd [27, 28]: below the threshold
Binder: RAVEEEESRF [PSCDBP, O60759]

pKd [1, 29]: below the threshold | pKd [2, 29]: below the threshold | pKd [3, 29]: below the threshold | pKd [4, 29]: below the threshold | pKd [5, 29]: below the threshold | pKd [6, 29]: below the threshold | pKd [7, 29]: below the threshold | pKd [8, 29]: below the threshold | pKd [9, 29]: below the threshold | pKd [10, 29]: below the threshold | pKd [11, 29]: below the threshold | pKd [12, 29]: below the threshold | pKd [13, 29]: below the threshold | pKd [14, 29]: below the threshold | pKd [15, 29]: below the threshold | pKd [16, 29]: below the threshold | pKd [17, 29]: below the threshold | pKd [18, 29]: below the threshold | pKd [19, 29]: below the threshold | pKd [20, 29]: below the threshold | pKd [21, 29]: 3.84 | pKd [22, 29]: below the threshold | pKd [23, 29]: below the threshold | pKd [24, 29]: below the threshold | pKd [25, 29]: below the threshold | pKd [26, 29]: below the threshold | pKd [27, 29]: below the threshold
Binder: YGIVQETTFDLGGDIH [MLLT4_int, P55196]

pKd [1, 30]: below the threshold | pKd [2, 30]: below the threshold | pKd [3, 30]: below the threshold | pKd [4, 30]: below the threshold | pKd [5, 30]: 4.62 | pKd [6, 30]: below the threshold | pKd [7, 30]: below the threshold | pKd [8, 30]: below the threshold | pKd [9, 30]: below the threshold | pKd [10, 30]: below the threshold | pKd [11, 30]: below the threshold | pKd [12, 30]: 4.19 | pKd [13, 30]: below the threshold | pKd [14, 30]: below the threshold | pKd [15, 30]: below the threshold | pKd [16, 30]: below the threshold | pKd [17, 30]: below the threshold | pKd [18, 30]: below the threshold | pKd [19, 30]: below the threshold | pKd [20, 30]: below the threshold | pKd [21, 30]: below the threshold | pKd [22, 30]: below the threshold | pKd [23, 30]: 4.6 | pKd [24, 30]: below the threshold | pKd [25, 30]: below the threshold | pKd [26, 30]: below the threshold | pKd [27, 30]: below the threshold
Binder: RPLPRKVSQL [DOCK4, Q8N1I0]
